T1: human xylosyltransferase 1 (XT1), residues 232-959 (human, UniProt Q86Y38 232-959, N-linked glycosylation at N777)
T1 construct: human xylosyltransferase 1 (XT1), residues 232-959, amplified from a Dharmacon cDNA clone; The vector is a modified pCEP-Pu (pCEP-Pu-N-His-TEV, Pulido et al., 2017); also called peptide O-xylosyltransferase; XYLT1; source: FreeStyle 293-F (HEK293-F) cells, transfected, secreted; purified (HisTrap Excel, HiTrap Heparin, Superdex 200); not shown: His-tag (TEV protease-cleavable), N-terminal, kept
T1 sequence (looked up): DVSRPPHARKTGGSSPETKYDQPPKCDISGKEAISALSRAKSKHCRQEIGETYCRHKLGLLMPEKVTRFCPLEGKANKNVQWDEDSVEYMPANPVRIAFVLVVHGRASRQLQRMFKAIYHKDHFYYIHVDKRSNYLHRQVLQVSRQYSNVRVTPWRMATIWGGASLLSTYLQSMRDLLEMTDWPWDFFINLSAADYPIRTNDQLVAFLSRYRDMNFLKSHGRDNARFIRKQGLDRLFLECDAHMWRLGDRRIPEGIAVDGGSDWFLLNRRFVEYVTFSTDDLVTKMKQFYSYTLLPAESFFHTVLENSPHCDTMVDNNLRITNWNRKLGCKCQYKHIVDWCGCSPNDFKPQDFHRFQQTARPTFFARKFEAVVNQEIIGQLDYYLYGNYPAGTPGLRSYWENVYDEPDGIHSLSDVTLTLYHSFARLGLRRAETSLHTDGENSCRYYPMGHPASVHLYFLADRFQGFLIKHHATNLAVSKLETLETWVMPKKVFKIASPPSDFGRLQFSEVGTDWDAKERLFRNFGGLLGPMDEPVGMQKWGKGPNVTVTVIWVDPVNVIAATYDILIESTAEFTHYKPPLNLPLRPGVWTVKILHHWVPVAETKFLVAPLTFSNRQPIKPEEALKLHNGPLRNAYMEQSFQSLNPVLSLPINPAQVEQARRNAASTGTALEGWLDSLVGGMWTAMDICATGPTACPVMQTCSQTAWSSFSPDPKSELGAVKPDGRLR


Each binder was assayed against T1, human xylosyltransferase 1 (XT1), … (assay: crystal structure; XT1 crystals (hanging drop, Morpheus condition, pH 7.5) soaked with peptide (0.5 or 0.7 mM); for peptide 2 together with UDP-xylose (3.5 mM), giving a ternary complex). Conditions: both partners purified.

binding result	Binder
binds	QEEEGSGGGQGG (bikunin (part of the AMBP precursor) around the acceptor serine S215; position 0 is the acceptor serine; also called active peptide 1; bikunin-derived peptide 1; source: synthetic peptide (Genscript)) [Peptide 1 (bikunin-derived acceptor peptide, wild-type sequence)]
binds	QEEEGAGGGQGG (bikunin (part of the AMBP precursor) around the acceptor site S215, with the acceptor serine changed to alanine; source: synthetic peptide (Genscript)) [Peptide 2 (inactive bikunin-derived peptide, acceptor serine replaced by alanine)]
binds	PAAEGSGEQDFT (syndecan 1 around the acceptor serine S206; position 0 is the acceptor serine; source: synthetic peptide (Genscript)) [Peptide 8 (syndecan 1-derived acceptor peptide)]

Reference: paper PMC5992326, “Structural Basis for the Initiation of Glycosaminoglycan Biosynthesis by Human Xylosyltransferase 1” (Structure(London, England:1993), 2018)
